Measurements from the supplement of paper PMC5998384.

Legend:
[1] = tested on: HeLa Kyoto; test: solubility in G1/S (NP-40 vs SDS abundance) (log2 ratio); higher = more soluble; settings: cell cycle stage: G1/S
[2] = tested on: HeLa Kyoto; test: melting temperature (median over replicates), in situ; higher = more thermally stable
[3] = tested on: HeLa Kyoto; test: solubility change mitosis vs G1/S (difference of NP-40 vs SDS log2 ratios) (log2 ratio difference); higher = more soluble in mitosis
[4] = tested on: HeLa Kyoto; test: thermal stability score vs G1/S (z-score of summed log2 fold changes over temperatures); higher = more thermally stable than in G1/S
[5] = cell cycle stage: early G1 (4.5 h after nocodazole release)
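Throughout, for melting temperature (median over replicates), in situ: HeLa Kyoto cells synchronized by double thymidine or nocodazole block, proteins quantified by TMT10plex mass spectrometry, three independent biological replicates.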
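Throughout, for solubility change mitosis vs G1/S (difference of NP-40 vs SDS log2 ratios): synchronized HeLa Kyoto cells (double thymidine block for G1/S, nocodazole release for mitosis), protein amounts in NP-40 versus SDS lysates quantified by mass spectrometry, three biological replicates.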
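Throughout, for solubility in G1/S (NP-40 vs SDS abundance): HeLa Kyoto cells arrested at G1/S by double thymidine block, proteins quantified by TMT10plex mass spectrometry in mild NP-40 versus SDS extracts, three biological replicates.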
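Throughout, for thermal stability score vs G1/S (z-score of summed log2 fold changes over temperatures): synchronized HeLa Kyoto cells, proteins quantified by TMT10plex mass spectrometry, three biological replicates, mitosis taken 0.5 h after nocodazole release, G1/S directly after double thymidine block.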

Sequence of NCOA3 (chain, as listed by the source): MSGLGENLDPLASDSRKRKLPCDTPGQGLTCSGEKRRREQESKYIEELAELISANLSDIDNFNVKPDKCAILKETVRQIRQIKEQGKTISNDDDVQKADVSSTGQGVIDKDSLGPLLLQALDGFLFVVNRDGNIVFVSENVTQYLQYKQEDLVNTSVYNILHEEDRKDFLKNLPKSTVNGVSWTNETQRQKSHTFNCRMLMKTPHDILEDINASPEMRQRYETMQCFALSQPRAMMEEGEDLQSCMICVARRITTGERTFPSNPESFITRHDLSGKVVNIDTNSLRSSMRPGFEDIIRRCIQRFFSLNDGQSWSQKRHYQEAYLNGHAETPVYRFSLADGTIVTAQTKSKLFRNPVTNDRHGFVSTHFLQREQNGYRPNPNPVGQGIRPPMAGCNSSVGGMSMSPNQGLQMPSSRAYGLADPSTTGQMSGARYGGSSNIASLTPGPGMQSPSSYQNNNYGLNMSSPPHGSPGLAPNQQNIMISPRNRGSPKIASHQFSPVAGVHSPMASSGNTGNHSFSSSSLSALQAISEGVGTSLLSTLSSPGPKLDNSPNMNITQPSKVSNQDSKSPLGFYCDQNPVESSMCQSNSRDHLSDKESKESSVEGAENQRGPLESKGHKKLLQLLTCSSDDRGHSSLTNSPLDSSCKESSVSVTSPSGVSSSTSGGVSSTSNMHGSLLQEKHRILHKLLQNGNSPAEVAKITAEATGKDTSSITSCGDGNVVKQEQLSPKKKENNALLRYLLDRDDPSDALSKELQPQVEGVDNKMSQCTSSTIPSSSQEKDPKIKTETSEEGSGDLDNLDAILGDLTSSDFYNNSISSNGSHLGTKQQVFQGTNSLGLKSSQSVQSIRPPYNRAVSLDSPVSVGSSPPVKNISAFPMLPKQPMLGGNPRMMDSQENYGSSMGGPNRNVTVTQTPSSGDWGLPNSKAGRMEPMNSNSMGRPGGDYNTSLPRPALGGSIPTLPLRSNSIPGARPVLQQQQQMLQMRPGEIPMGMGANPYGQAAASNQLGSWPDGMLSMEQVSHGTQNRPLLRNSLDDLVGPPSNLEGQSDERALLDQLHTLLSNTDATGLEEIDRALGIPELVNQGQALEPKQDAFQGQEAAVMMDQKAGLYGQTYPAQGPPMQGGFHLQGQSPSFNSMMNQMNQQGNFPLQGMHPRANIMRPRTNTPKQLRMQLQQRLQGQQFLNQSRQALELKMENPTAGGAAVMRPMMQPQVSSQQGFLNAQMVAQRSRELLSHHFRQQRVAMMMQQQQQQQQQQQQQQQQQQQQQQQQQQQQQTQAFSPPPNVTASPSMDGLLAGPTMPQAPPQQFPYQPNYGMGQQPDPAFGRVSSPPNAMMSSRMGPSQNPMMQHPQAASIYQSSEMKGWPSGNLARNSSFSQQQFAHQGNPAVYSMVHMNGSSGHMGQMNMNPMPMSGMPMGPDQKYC
Sequence of POLD2 (chain, as listed by the source): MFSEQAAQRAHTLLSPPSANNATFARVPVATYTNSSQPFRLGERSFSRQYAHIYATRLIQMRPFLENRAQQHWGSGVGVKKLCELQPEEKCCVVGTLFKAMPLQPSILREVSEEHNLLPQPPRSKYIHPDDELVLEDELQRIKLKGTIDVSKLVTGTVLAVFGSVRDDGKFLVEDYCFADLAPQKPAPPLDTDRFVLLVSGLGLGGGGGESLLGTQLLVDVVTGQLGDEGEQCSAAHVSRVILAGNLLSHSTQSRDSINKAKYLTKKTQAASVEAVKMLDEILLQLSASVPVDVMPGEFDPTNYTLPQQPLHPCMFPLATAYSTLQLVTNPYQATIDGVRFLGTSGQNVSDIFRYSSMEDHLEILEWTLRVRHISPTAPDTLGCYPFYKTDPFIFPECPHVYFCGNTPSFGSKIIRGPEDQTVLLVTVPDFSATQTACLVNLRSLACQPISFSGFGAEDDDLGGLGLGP
Sequence of PCYT1A (chain, as listed by the source): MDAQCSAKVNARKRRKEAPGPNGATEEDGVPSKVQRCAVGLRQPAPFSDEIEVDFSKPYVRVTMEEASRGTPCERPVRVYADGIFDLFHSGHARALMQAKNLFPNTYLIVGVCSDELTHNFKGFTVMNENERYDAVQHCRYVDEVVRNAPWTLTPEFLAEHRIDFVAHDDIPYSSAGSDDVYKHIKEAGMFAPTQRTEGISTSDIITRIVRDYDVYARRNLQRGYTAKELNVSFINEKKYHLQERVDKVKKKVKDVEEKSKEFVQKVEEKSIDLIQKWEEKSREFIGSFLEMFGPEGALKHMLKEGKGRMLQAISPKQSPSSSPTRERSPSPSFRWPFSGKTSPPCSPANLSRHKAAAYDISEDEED
Sequence of NLE1 (chain, as listed by the source): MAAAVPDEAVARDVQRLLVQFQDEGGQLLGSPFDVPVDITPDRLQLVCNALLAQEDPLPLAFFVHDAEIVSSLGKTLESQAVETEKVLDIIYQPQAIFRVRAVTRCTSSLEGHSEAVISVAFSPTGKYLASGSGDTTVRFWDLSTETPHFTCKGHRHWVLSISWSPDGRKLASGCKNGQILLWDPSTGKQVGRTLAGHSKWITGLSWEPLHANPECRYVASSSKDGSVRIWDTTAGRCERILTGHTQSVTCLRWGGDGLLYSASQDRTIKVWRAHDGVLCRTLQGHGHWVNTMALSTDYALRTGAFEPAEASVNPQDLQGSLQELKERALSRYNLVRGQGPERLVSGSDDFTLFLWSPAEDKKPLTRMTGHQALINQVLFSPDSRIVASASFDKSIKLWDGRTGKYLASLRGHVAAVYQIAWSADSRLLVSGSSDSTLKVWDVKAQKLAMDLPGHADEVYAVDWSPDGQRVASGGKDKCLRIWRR
Sequence of UBE2V2 (chain, as listed by the source): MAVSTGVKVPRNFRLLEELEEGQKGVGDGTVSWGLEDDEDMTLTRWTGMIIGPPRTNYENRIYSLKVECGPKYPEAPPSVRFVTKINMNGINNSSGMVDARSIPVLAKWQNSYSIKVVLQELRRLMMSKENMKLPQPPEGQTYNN
Sequence of ZNF207 (chain, as listed by the source): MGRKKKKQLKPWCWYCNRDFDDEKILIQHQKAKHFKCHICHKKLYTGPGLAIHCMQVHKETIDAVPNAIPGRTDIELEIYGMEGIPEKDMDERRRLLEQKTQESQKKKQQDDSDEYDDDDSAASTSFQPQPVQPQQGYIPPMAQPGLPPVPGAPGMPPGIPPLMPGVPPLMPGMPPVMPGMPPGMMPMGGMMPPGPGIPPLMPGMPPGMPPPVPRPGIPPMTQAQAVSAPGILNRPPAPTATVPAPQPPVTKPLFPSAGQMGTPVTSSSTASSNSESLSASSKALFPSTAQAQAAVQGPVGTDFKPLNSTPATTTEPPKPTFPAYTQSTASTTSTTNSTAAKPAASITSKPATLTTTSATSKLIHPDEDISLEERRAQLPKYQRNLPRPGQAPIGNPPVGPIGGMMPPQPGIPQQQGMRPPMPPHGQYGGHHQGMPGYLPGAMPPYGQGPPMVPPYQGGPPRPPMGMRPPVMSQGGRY
Sequence of PGRMC1 (chain, as listed by the source): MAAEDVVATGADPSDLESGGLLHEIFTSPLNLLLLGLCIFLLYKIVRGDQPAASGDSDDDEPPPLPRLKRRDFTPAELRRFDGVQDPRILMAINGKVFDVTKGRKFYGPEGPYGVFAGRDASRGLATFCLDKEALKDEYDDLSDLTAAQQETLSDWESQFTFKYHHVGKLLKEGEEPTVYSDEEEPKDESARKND
Sequence of RNGTT (chain, as listed by the source): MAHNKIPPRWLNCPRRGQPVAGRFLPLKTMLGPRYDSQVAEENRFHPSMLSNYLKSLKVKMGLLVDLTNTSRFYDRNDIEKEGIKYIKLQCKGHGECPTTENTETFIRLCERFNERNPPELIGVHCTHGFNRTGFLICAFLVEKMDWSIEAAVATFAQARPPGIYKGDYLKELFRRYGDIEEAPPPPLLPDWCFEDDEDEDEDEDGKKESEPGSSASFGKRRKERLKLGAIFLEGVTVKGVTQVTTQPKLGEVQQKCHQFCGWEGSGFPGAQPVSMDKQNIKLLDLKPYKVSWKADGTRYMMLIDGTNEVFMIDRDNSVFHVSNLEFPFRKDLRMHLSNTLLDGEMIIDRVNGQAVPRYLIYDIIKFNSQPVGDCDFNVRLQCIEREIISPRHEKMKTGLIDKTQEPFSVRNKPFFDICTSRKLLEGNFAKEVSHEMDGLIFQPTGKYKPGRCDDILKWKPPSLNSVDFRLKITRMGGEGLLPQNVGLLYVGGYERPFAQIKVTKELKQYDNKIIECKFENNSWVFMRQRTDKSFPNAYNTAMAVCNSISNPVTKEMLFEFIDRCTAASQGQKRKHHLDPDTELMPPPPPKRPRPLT

Row | Substance | solubility in G1/S (log2) [1] | melting temperature ([2]; cell cycle stage: G1/S) [°C] | melting temperature ([2]; cell cycle stage: mitosis) [°C] | solubility change mitosis (log2) [3] | thermal stability score [4, 5] | thermal stability score ([4]; cell cycle stage: mitosis)
1 | MYO5B | -0.588 | 49.7 | 53.1 | 0.158 | -0.778 | -0.163
2 | MYO5C | -0.665 | 50.9 | – | 0.291 | 0.384 | 1.14
3 | MYPESTTGSPARLSLRQTGSPGMIYSTRYGSPKRQLQFYRNLGKSGLRVSCLGLGTWVTFGGQITDEMAEQLMTLAYDNGINLFDTAEVYAAGKAEVVLGNIIKKKGWRRSSLVITTKIFWGGKAETERGLSRKHIIEGLKASLERLQLEYVDVVFANRPDPNTPMEETVRAMTHVINQGMAMYWGTSRWSSMEIMEAYSVARQFNLTPPICEQAEYHMFQREKVEVQLPELFHKIGVGAMTWSPLACGIVSGKYDSGIPPYSRASLKGYQWLKDKILSEEGRRQQAKLKELQAIAERLGCTLPQLAIAWCLRNEGVSSVLLGASNADQLMENIGAIQVLPKLSSSIIHEIDSILGNKPYSKKDYRS [KCNAB2] | 0.117 | 60.3 | 58.8 | -0.201 | -0.252 | 3.11
4 | MYRALRLLARSRPLVRAPAAALASAPGLGGAAVPSFWPPNAARMASQNSFRIEYDTFGELKVPNDKYYGAQTVRSTMNFKIGGVTERMPTPVIKAFGILKRAAAEVNQDYGLDPKIANAIMKAADEVAEGKLNDHFPLVVWQTGSGTQTNMNVNEVISNRAIEMLGGELGSKIPVHPNDHVNKSQSSNDTFPTAMHIAAAIEVHEVLLPGLQKLHDALDAKSKEFAQIIKIGRTHTQDAVPLTLGQEFSGYVQQVKYAMTRIKAAMPRIYELAAGGTAVGTGLNTRIGFAEKVAAKVAALTGLPFVTAPNKFEALAAHDALVELSGAMNTTACSLMKIANDIRFLGSGPRSGLGELILPENEPGSSIMPGKVNPTQCEAMTMVAAQVMGNHVAVTVGGSNGHFELNVFKPMMIKNVLHSARLLGDASVSFTENCVVGIQANTERINKLMNESLMLVTALNPHIGYDKAAKIAKTAHKNGSTLKETAIELGYLTAEQFDEWVKPKDMLGPK [FH] | 0.478 | 53.5 | 53.4 | 0.0382 | 1.14 | -0.915
5 | NCOA3 | 0.355 | 51.2 | 49.8 | -0.0688 | 0.836 | 1.22
6 | NFIA | -0.00202 | 59 | 62.1 | 0.0442 | 0.325 | 1.68
7 | NIPBL | -0.446 | 47.3 | 49.3 | 0.263 | 2.24 | 6.45
8 | NLE1 | -0.35 | 53 | 54.2 | 0.0775 | -1.88 | -4.55
9 | NUP210 | -0.0147 | 54.3 | 53.7 | 0.0421 | 6.11 | 9.9
10 | PACS1 | 0.119 | 50.8 | 51.4 | -0.211 | -0.425 | 0.437
11 | PCMT1 | 0.427 | 54 | 54.8 | 0.147 | 0.536 | -0.469
12 | PCYT1A | 0.341 | 51.4 | 52.4 | -0.0895 | 2.25 | 3.79
13 | PDE4DIP | 0.0173 | 51.6 | – | 0.0943 | 0.534 | 0.401
14 | PGRMC1 | 0.15 | 53.1 | 52.8 | 0.219 | -0.433 | -0.0697
15 | PKN2 | -0.0314 | 48.3 | 49.3 | -0.163 | 0.95 | 1.36
16 | PLPP2 | -0.0273 | 55 | 54.3 | -0.279 | 0.347 | -1.64
17 | PLXNB2 | -0.0357 | 52.2 | 51.1 | -0.0477 | -1.95 | -2.08
18 | PLXND1 | 0.0061 | 49.5 | 48.7 | -0.0638 | 0.367 | 0.672
19 | POLD2 | 0.263 | 49.9 | 49.5 | -0.136 | 1.48 | 2.07
20 | POLE | -0.355 | 49.5 | 51.5 | -0.0472 | 0.724 | 1.31
21 | PRRC2A | -0.105 | 53.7 | 55.1 | 0.0463 | 0.422 | 0.00992
22 | RIF1 | -0.28 | 47.3 | 49.6 | 0.0253 | 2.16 | 5.52
23 | RNGTT | -0.301 | 47.7 | 48.7 | -0.0839 | 0.407 | 0.579
24 | SAR1A | 0.207 | 52 | 52.8 | -0.239 | 2.01 | 1.85
25 | SDE2 | 0.563 | 49.5 | 49.5 | 0.0378 | 2.03 | 1.98
26 | SEPHS1 | 0.503 | 58.8 | 58.8 | -0.0554 | -1.3 | -1.24

Row | Substance | solubility in G1/S (log2) [1] | melting temperature ([2]; cell cycle stage: G1/S) [°C] | melting temperature ([2]; cell cycle stage: mitosis) [°C] | solubility change mitosis (log2) [3] | thermal stability score [4, 5] | thermal stability score ([4]; cell cycle stage: mitosis)
27 | SETD2 | -0.43 | 48.1 | 50.2 | 0.19 | 0.914 | 2.05
28 | SLC15A4 | 0.0784 | 55.4 | 56.5 | -0.171 | -2.84 | -2.51
29 | SLC27A2 | -0.335 | 50 | 50.3 | -0.133 | 2.25 | 2.44
30 | SMG1 | -0.17 | 50.3 | 50.2 | -0.102 | -0.61 | -0.143
31 | SNRNP200 | -0.756 | 50 | 50.8 | 0.171 | 2.93 | 4.86
32 | THOC2 | -0.681 | 48.6 | 49.5 | 0.221 | -3.49 | -0.552
33 | TOR1AIP1 | -0.0913 | 54.4 | 54.9 | 0.144 | 1.27 | 1.41
34 | TPR | -0.23 | 50.3 | 50.8 | 0.191 | -1.4 | 0.657
35 | TRPM7 | -0.312 | 51.6 | 51.4 | -0.0119 | 0.936 | 0.742
36 | TSC2 | -0.16 | 49.6 | 50.9 | -0.0844 | 0.00265 | 0.786
37 | TSR3 | 0.0751 | 54.3 | 54.3 | -0.12 | 0.927 | -0.253
38 | UBE2V2 | 0.464 | 52.5 | 52.9 | 0.122 | 0.348 | -0.815
39 | UBR2 | -0.361 | 49.9 | 49.8 | -0.184 | 0.798 | 1.58
40 | UGGT2 | -0.222 | 54 | 54.1 | -0.15 | 2.37 | 4.53
41 | UNC119B | 0.268 | 50.6 | 50.3 | -0.089 | -0.908 | -0.273
42 | USP34 | -0.314 | 49.5 | 50.2 | -0.0816 | 0.493 | 1.73
43 | UTRN | 0.0106 | 49 | 48.5 | -0.109 | 0.795 | 1.84
44 | WBSCR16 | -0.259 | 53.6 | 52.7 | -0.168 | 0.481 | -0.564
45 | WDR48 | -0.162 | 52.5 | 53.9 | -0.036 | 3.81 | 2.36
46 | WIZ | -0.0213 | 50.4 | 50.8 | 0.321 | 0.511 | -0.305
47 | XRN1 | -0.345 | 49 | 48.5 | -0.0622 | 0.741 | 0.939
48 | ZC3H13 | -0.595 | 49.5 | 50.7 | 0.414 | 0.124 | 2.39
49 | ZCCHC11 | -0.0583 | 50.6 | 49.4 | -0.11 | 0.72 | 1.31
50 | ZNF207 | 0.0156 | 55.8 | 55.4 | 0.36 | -5.35 | -6.05
51 | ZNF638 | -0.709 | 48.1 | 50.2 | 0.363 | 1.39 | 4.74
52 | ZSWIM8 | -0.162 | 49.2 | 49 | -0.0253 | 0.66 | 1.55
